For data set [1], the system named is CTSL1_2 9-mer FRET substrate Mca-ALFFSSPPSK-Dnp.
Data set [2] has as its system ALU30-16.
The subject of data set [3] is ALU30-14.
Data set [4] relates to ALU30-12.
The subject of data set [5] is ALU30-17.
For data set [6], the system named is ALU30-10.
The test system of data set [7] is ALU30-1.
Data set [8] has as its system ALU30-5.
Data set [9] deals with ALU30-13.
For data set [10], the system named is ALU30-18.
In data set [11] the test system is ALU30-7.
ALU30-7, sequence (chain, as listed by the source): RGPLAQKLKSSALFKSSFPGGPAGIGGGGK
Data set [12] has as its system ALU30-11.
The subject of data set [13] is CTSL1_1 FRET substrate (ALFKSSFP).
Data set [14] deals with ALU30-9.
ALU30-9, sequence (chain, as listed by the source): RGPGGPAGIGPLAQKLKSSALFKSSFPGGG
The test system of data set [15] is CTSL1_2 8-mer FRET substrate Mca-ALFFSSPPK-Dnp.
Data set [16] concerns ALU30-6.
ALU30-6, sequence (chain, as listed by the source): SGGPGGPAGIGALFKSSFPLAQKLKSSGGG
The test system of data set [17] is ALU30-15.
ALU30-15, sequence (chain, as listed by the source): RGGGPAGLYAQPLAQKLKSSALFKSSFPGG
The subject of data set [18] is ALU30-8.

Cathepsin L (CTSL1), recombinant human, sequence (chain, as listed by the source): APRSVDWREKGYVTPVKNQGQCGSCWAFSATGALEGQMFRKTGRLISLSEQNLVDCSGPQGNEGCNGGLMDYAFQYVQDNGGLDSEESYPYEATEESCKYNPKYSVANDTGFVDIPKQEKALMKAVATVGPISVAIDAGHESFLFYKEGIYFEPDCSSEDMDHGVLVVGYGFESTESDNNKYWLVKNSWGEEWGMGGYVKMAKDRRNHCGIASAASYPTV
ALU30-18, sequence (chain, as listed by the source): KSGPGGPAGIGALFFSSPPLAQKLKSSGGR
ALU30-8, sequence (chain, as listed by the source): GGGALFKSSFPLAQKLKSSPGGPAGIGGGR
ALU30-14, sequence (chain, as listed by the source): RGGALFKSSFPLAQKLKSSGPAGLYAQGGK
ALU30-5, sequence (chain, as listed by the source): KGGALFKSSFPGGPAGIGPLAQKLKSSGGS
ALU30-11, sequence (chain, as listed by the source): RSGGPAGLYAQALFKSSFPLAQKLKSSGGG
ALU30-10, sequence (chain, as listed by the source): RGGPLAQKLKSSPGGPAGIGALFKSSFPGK
ALU30-17, sequence (chain, as listed by the source): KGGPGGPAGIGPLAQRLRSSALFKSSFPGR
ALU30-13, sequence (chain, as listed by the source): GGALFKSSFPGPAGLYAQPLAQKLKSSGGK
ALU30-12, sequence (chain, as listed by the source): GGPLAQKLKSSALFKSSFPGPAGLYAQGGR
ALU30-1, sequence (chain, as listed by the source): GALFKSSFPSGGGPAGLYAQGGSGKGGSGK
ALU30-16, sequence (chain, as listed by the source): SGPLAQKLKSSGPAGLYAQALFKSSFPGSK

Regarding Cathepsin L (CTSL1), recombinant human, the “FRET substrate cleavage, catalytic efficiency” value in data set [1] was “This 9-mer FRET substrate bearing the CTSL1_2 motif produced comparable catalytic efficiency to the CTSL1_1 motif”. In addition, the “30-mer substrate degradation (MSP-MS)” value in data set [2] is “Peptides bearing the MMP14_1 motif with CTSL1_1 and ADAM17_2 were slightly lower efficiency”; in data set [3], “Peptides bearing the MMP14_1 motif with CTSL1_1 and ADAM17_2 were slightly lower efficiency”; in data set [4], “Peptides bearing the MMP14_1 motif with CTSL1_1 and ADAM17_2 were slightly lower efficiency”; in data set [5] it was “CTSL1 treatment of the 30-mer peptide library produced cleavages in all peptides bearing a CTSL1_1 or CTSL1_2 motif”; in data set [6], “The most efficiently cleaved peptides were those containing the FAPa_1, CTSL1_1 and ADAM17_2 motifs, in multiple orders”; in data set [7] it was “CTSL1 treatment of the 30-mer peptide library produced cleavages in all peptides bearing a CTSL1_1 or CTSL1_2 motif”. Also, the “30-mer substrate degradation (MSP-MS)” value in [8] is “The most efficiently cleaved peptides were those containing the FAPa_1, CTSL1_1 and ADAM17_2 motifs, in multiple orders”; in data set [9], “Peptides bearing the MMP14_1 motif with CTSL1_1 and ADAM17_2 were slightly lower efficiency”; in data set [10], “CTSL1 treatment of the 30-mer peptide library produced cleavages in all peptides bearing a CTSL1_1 or CTSL1_2 motif”; in data set [11], “The most efficiently cleaved peptides were those containing the FAPa_1, CTSL1_1 and ADAM17_2 motifs, in multiple orders”; in [12], “Peptides bearing the MMP14_1 motif with CTSL1_1 and ADAM17_2 were slightly lower efficiency”; in data set [14], “The most efficiently cleaved peptides were those containing the FAPa_1, CTSL1_1 and ADAM17_2 motifs, in multiple orders”. In addition, the “30-mer substrate degradation (MSP-MS)” value in [16] is “The most efficiently cleaved peptides were those containing the FAPa_1, CTSL1_1 and ADAM17_2 motifs, in multiple orders”; in [17] it was “Peptides bearing the MMP14_1 motif with CTSL1_1 and ADAM17_2 were slightly lower efficiency”; in data set [18], “The most efficiently cleaved peptides were those containing the FAPa_1, CTSL1_1 and ADAM17_2 motifs, in multiple orders”. Moreover, the “30-mer cleavage (substrate disappearance and product formation)” value was “Both peptides showed rapid disappearance of substrate (squares) and product formation from cleavage at the target scissile bond” in [10]; “Both peptides showed rapid disappearance of substrate (squares) and product formation from cleavage at the target scissile bond” in [16]. The FRET substrate cleavage result is listed as “CTSL1 cleaves the FRET substrate bearing the CTSL1_1 motif highly efficiently” in data set [13] and “the new CTSL1_2 motif was not cleaved in the context of an 8-mer FRET peptide” in [15]. For the same substance, in [17], the “cleavage efficiency of 30-mer library peptides” value was “lower CTSL1 activity”.

(Values after US20210115102.)
